The values that follow are results of earlier work, collected in publication PMC6716120.

The series has as its target hexon (Human adenovirus 5) (UniProt P04133).

Chain of coagulation factor X (P00742 41-488): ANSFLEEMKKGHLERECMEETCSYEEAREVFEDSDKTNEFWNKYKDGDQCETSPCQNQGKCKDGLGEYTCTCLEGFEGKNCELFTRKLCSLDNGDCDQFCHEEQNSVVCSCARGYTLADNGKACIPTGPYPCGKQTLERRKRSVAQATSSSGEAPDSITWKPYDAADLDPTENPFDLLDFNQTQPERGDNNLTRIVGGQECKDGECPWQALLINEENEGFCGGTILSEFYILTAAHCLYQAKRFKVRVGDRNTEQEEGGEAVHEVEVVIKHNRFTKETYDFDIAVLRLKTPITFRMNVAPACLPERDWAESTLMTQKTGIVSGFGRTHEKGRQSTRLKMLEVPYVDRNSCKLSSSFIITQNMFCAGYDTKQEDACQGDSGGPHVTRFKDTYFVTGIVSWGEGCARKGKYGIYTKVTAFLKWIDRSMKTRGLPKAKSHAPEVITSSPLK
Chain of hexon (Human adenovirus 5) (P04133 2-952): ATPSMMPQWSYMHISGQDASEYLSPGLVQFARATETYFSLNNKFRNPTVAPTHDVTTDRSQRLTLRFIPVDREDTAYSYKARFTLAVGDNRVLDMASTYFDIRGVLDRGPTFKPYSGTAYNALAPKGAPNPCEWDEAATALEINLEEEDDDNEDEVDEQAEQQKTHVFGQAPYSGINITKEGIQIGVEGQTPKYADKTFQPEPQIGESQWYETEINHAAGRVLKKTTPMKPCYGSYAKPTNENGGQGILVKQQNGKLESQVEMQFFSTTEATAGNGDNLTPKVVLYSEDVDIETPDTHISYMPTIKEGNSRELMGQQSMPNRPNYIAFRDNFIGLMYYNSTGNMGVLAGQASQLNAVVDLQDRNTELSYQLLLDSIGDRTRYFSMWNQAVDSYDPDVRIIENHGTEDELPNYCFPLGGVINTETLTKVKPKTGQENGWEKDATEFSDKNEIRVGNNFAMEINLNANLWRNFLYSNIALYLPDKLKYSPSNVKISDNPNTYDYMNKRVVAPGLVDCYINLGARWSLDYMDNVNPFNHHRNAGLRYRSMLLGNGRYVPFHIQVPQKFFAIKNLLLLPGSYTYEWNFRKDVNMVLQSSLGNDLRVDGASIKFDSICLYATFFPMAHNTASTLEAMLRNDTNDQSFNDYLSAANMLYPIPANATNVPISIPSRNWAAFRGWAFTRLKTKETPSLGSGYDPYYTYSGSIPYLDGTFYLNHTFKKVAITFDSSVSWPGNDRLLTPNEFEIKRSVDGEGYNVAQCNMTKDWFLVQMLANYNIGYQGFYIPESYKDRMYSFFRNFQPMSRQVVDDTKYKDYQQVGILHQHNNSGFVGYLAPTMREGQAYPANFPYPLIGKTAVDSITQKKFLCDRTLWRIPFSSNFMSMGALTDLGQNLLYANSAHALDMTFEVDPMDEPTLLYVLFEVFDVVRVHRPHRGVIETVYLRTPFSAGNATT

Regarding “coagulation factor X (from UniProt P00742)”, the dissociation constant Kd (usually the concentration at which binding is half-saturated) is 2 nM.
